Reference: article PMC4749977, “Alp7/TACC-Alp14/TOG generates long-lived, fast-growing MTs by an unconventional mechanism” (Scientific Reports, 2016)
Blank lines part the entries; values can stand above or below the binder they belong to.

Experiments:
[1] = molecular target: T1, S. pombe single isoform (α1β) tubulin (S. pombe, UniProt P04688 1-455; P05219 1-448); test: microtubule growth rates (dark-field microscopy) with Alp14, fit of a kinetic model; Alp14-facilitated pathway T + M + E = TE + M = E + (M+1); Alp14 resident at the plus end of S. pombe α1β microtubules grown from GMPCPP seeds; 6 µM or 0.5 µM tubulin, nanomolar Alp14, PEM100, 25 °C; constants are parameters fitted to or constrained by the growth data, steady state assumed; settings: both partners purified
T1 construct: alpha-1 tubulin (α1) of S. pombe, from strain mmsp174 (atb2 replaced by nda2+); beta tubulin (β) of S. pombe, from strain mmsp174; Stands both as the free GTP-tubulin heterodimer and as the growing plus end of the microtubule polymerised from it; which of the two is meant is told in the assay's format and the quantity; also called GTP-tubulin; T (tubulin dimer); source: purified from S. pombe …

[2] = molecular target: T1, S. pombe single isoform (α1β) tubulin; test: as above; settings: both partners purified; remark: listed apart in the source
[3] = molecular target: T2, Alp7-14 complex (full length Alp14 mixed with full length Alp7) (S. pombe, UniProt O94534 1-809; Q9URY2 1-474, biotin on the AviTag (BirA ligase co-expressed to ensure biotinylation)); test: glycerol gradient centrifugation; 5-40% glycerol gradient of purified Alp14, Alp7 and tubulin, alone or mixed; tubulin as GTP-tubulin where stated; fractions on SDS-PAGE with Coomassie staining; settings: both partners purified
T2 construct: Alp14 of S. pombe, full length, as the chain of m1; Alp7 of S. pombe, full length, as the chain of m2; also called Alp7/TACC-Alp14/TOG; source: each from Sf9 insect cells (baculovirus), purified, then mixed
T2 sequence (looked up) 1: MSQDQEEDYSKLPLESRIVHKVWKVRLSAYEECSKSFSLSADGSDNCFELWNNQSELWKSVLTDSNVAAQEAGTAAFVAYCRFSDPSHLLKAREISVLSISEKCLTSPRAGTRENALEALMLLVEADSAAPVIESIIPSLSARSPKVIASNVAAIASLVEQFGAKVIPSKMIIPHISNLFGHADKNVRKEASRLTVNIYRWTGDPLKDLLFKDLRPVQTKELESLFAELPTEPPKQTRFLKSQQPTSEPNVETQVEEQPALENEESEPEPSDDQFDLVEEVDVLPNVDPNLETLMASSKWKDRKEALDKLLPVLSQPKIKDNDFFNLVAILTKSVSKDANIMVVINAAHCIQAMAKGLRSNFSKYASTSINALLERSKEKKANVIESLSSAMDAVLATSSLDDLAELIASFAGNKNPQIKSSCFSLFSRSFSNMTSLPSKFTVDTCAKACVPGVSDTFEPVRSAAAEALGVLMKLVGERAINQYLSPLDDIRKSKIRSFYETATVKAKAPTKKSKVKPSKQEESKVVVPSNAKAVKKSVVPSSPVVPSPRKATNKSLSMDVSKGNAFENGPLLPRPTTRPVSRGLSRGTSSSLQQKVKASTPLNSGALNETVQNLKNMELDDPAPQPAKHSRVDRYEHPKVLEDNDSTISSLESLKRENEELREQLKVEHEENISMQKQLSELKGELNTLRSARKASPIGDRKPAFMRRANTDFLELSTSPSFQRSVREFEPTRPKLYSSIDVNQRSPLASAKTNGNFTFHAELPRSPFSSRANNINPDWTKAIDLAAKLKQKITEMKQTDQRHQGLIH
T2 sequence (looked up) 2: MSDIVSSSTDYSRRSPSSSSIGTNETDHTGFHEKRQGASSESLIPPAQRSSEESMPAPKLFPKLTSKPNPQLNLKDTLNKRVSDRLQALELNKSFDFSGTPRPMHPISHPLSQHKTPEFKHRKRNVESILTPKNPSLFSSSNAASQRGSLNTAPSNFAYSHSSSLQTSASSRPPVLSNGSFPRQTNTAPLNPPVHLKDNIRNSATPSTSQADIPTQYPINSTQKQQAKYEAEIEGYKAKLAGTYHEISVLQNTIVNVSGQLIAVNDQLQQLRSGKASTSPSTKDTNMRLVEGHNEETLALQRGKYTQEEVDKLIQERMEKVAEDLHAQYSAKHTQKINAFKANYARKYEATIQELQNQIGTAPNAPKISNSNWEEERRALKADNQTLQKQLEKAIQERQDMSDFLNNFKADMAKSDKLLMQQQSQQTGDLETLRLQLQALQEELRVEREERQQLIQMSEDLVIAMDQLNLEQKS

[4] = molecular target: T3, Alp7 with Alp14-GFP (tip tracking Alp7-14 complexes) (S. pombe, UniProt O94534 1-809; Q9URY2 1-474, biotin on the AviTag (BirA ligase co-expressed to ensure biotinylation)); test: TIRF microscopy of Alp14-GFP on dynamic microtubules; dual-TIRF; MTs nucleated by immobilized Alexa488 labeled seeds using 6 μM S. pombe tubulin doped with 2.5% (150 nM) rhodamine labeled brain tubulin; Alp14-GFP without or with Alp7; settings: both partners purified
T3 construct: Alp14 of S. pombe, as the chain of m9; Alp7 of S. pombe, full length, as the chain of m2; source: each from Sf9 insect cells (baculovirus), purified, added together to the assay
T3 sequence (looked up) 1: T2 sequence (looked up) 1
T3 sequence (looked up) 2: T2 sequence (looked up) 2

[5] = molecular target: the molecule itself; test: DIC video microscopy of microtubule growth; addition of GTP-tubulin to plus and minus ends of MTs nucleated by axoneme fragments; growth rate against tubulin concentration, linear regression, apparent rate constants; 100 mM K-PIPES, 1 mM MgSO4, 2 mM EGTA, 1 mM DTT pH 6.9, 1 mM GTP, no glycerol, 25 °C

- Kd [1]: 6 nM
- koff [1]: 1 to 15 s⁻¹
- kon [1]: > 4e+07 M⁻¹ s⁻¹
- Kd [2]: > 5 nM
B1: Alp14 (full length, S. pombe TOG-family microtubule polymerase) (enzyme, UniProt O94534 1-809, looked up)
chain: T2 sequence (looked up) 1
notes: Alp14, S. pombe, full length; gene PCR-amplified from wild type genomic S. pombe DNA; also called Alp14/TOG

- binding result [3]: binds
- binding result [4]: binds
B2: S. pombe single isoform (α1β) tubulin (complex)
chain 1: MREVISVHVGQAGVQIGNACWELYCLEHGIGPDGFPTENSEVHKNNSYLNDGFGTFFSETGQGKFVPRSIYVDLEPNVIDQVRTGPYKDLFHPEQMVTGKEDASNNYARGHYTVGKEMIDSVLERIRRMADNCSGLQGFLVFHSFGGGTGSGLGALLLERLNMEYGKKSNLQFSVYPAPQVSTSVVEPYNSVLTTHATLDNSDCTFMVDNEACYDICRRNLDIERPTYENLNRLIAQVVSSITASLRFAGSLNVDLNEFQTNLVPYPRIHFPLVTYSPIVSAAKAFHESNSVQEITNQCFEPYNQMVKCDPRTGRYMATCLLYRGDVIPRDVQAAVTSIKSRRTIQFVDWCPTGFKIGICYEPPQHVPGSGIAKVNRAVCMLSNTTSIAEAWSRLDHKFDLMYSKRAFVHWYVGEGMEEGEFSEAREDLAALERDYEEVGQDSMDNEMYEADEEY
chain 2: MREIVHIQAGQCGNQVGAAFWSTIADEHGLDSAGIYHGTSEAQHERLNVYFNEAAGGKYVPRAVLVDLEPGTMDAVKSGKFGNLFRPDNIIYGQSGAGNIWAKGHYTEGAELADAVLDVVRREAEACDALQGFQLTHSLGGGTGSGMGTLLLSKIREEYPDRMMATFSVAPAPKSSDTVVEPYNATLSMHQLVENSDETFCIDNEALSSIFANTLKIKSPSYDDLNHLVSAVMAGVTTSFRFPGELNSDLRKLAVNMVPFPRLHFFMVGFAPLAAIGSSSFQAVSVPELTQQMFDANNMMVAADPRHGRYLTVAALFRGKVSMKEVDEQIRSVQTKNSAYFVEWIPDNVLKAVCSVPPKDLKMSATFIGNSTSIQEIFRRLGDQFSAMFRRKAFLHWYTGEGMDEMEFTEAESNMNDLVSEYQQYQEAGIDEGDEDYEIEEEKEPLEY
notes: alpha-1 tubulin of S. pombe, untagged, endogenous; beta tubulin of S. pombe, untagged, endogenous; Used as free heterodimer (GTP or GDP form) in the gradients and polymerised into dynamic microtubules in the microscopy assays; the assay's format tells which; also called single isoform S. pombe tubulin; S. pombe tubulin; source: purified from S. pombe single isoform strain (mmsp174): ion exchange, …
- Kd = koff/kon (critical concentration), minus end [5]: 900 nM
- Kd = koff/kon (critical concentration), plus end [5]: 1200 nM
